Test results reported in patent US20060263331A1, “Therapeutic use of tumor necrosis factor-alpha mutein” (priority 2002, published 2006).

Tests used:
Format in all cases: in vivo, human
Lung Cancer = test: Clinical monotherapy of rhTNFm1, lung cancer
Text: (§1) Patients were selected based on the following criteria: i) measurable, objective tumor; ii) Karnofsky performance status (KPS)≧60; iii) age 18-75; iv) major organs in basically normal condition; v) no chemotherapy, radiotherapy and biologic therapy within the last month; vi) predicted ≧3 mon. survival; and vii) with patient's informed consent signed.
(§2) Patients were excluded based on the following criteria: i) with history of allergic reactions to TNF or its derivatives; ii) pregnant or lactating women; iii) major organs with obvious damages or malfunction; iv) in ≧38° C. fever; v) with obvious tendency to haemorrhage; vi) with history of hypo- or hypertension; vii) with serious albuminemia; and viii) with strong tendency of disobedience or resistance.
(§3) Patients were removed from the evaluation if any of the following conditions apply: i) treatment was not completed according to the protocol; ii) incomplete records; and iii) treatment using cancer therapies not in the protocol. However, patients who withdrew due to adverse reactions to the therapy were still included in the evaluation.
(§4) The results of the treatment of tumors were evaluated based the following criteria: i) complete response (CR)—complete disappearance of observable pathological changes for at least 4 weeks; ii) partial response (PR)—reduction by ≧50% in tumor size measured by the product of the maximum circular and vertical dimensions for at least 4 weeks; iii) minimum response (MR)—reduction by >25% but <50% in tumor size measured by the product of the maximum circular and vertical dimensions for at least 4 weeks; iv) stabilized (SD)—reduction by ≦25% but without increase by >25% in tumor size measured by the product of the maximum circular and vertical dimensions for at least 4 weeks; and progression (PD): increase by >25% in tumor size in one or more sites.
(§5) Patients rested on day 1 and 2. The treatment cycle was 3-4 weeks.

Liver Cancer = test: Clinical monotherapy of rhTNFm1, liver cancer; conditions: 12 patients
Text: as §1, §2, §3, §4, §5

Colon Cancer = test: Clinical monotherapy of rhTNFm1, colon cancer; conditions: 7 patients
Text: as §1, §2, §3, §4, §5

Breast Cancer = test: Clinical monotherapy of rhTNFm1, breast cancer; conditions: 10 patients
Text: as §1, §2, §3, §4, §5

non-Hodgkin's lymphoma = test: Clinical monotherapy of rhTNFm1, non-Hodgkin's lymphoma; conditions: for Response Rate (%) CR / Response Rate (%) CR + PR / Response Rate (%) PR / Efficacy CR / Efficacy MR / Efficacy PD / Efficacy PR / Efficacy SD: Non-Hodgkin's, monotherapy; for Efficacy CR / Efficacy MR / Efficacy PD / Efficacy PR / Efficacy SD: patient count
Text: as §1, §2, §3, §4, §5
Table II summaries results of the treatment of patients with malignant lymphoma, classified according to Hodgkin's disease and non-Hodgkin's lymphoma. Within each of category of lymphoma, patients were further classified into two groups: chemo-naïve and chemo-refractory. The chemo-naïve patients were patients who had never been treated with any anti-cancer agent previously whereas chemo-refractory patients were ones who failed treatment with one or more anti-cancer agent.

[1] = test system: malignant pleural effusion; test: Clinical monotherapy of rhTNFm1, malignant pleural effusion; conditions: 141 patients
Text: as §1, §2, §3
The results of the treatment of malignant pleural effusion (or hydrothorax) and ascites were evaluated based on a modified Millar standard (Millar J W, Hunfer A M, Home N W. (1980) “Inerapleural immunotherapy with CP”, in Recurrent Malignant Pleural Effusions. Thorax 35:856): i) complete response (CR)—complete disappearance of pleural effusion or ascites for at least 1 month; ii) partial response (PR)—reduction by at least 1 grade for at least 1 month; iii) minimum response (MR)—reduction in the levels of pleural effusion or ascites within the same grade for at least 1 month; iv) stabilized (SD)—levels of pleural effusion or ascites maintained within the same grade for at least 1 month; and progressed (PD): increase in the levels of pleural effusion or ascites compared with those before the treatment.
as §5
It is noted that Table III includes the patients who withdrew due to […], including 1 with malignant pleural effusion and 1 with malignant ascites. For patients with malignant ascites, rhTNFm1 was reconstituted in 30-50 ml normal saline and administered intraperitoneally (i.p.) at 2,000,000-3,000,000 units each time, 1-2 times a week, with 2-3 weeks as one treatment cycle. Optionally, rhTNFm1 was administered to the patients by alternating between i.p. injection and i.v. injection (at 600,000-900,000 unit/m^2 per day continuing for 28 days as one treatment cycle). On the day when rhTNFm1 was administered via i.p. injection, administration of rhTNFm1 via i.v. injection was stopped.

[2] = KPS of patients treated with rhTNFm1 alone; conditions: P=0.013, particularly malignant pleural effusion
Text: as §1, §5

[3] = Lung Cancer, 20 patients, monotherapy
[4] = patient count, Lung Cancer, 20 patients, monotherapy
[5] = Chemo-naïve Grade I & II, 4 patients
[6] = Chemo-naïve Grade III & IV, 5 patients

B1: rhTNFm1: Recombinant human TNF-α mutant 1 expressed in E. coli; SEQ ID NO: 3 with N-terminal methionine (FIG. 1, 2) (protein)
chain: MRKRKPVAHVVANPQAEGQLQWLNRRANALLANGVELRDNQLVVPSEGLYLIYSQVLFKGQGCPSTHVLLTHTISRIAVSYQTKVNLLSAIKSPCQRETPEGAEAKPWYEPIYLGGVFQLEKGDRLSAEINRPDYLDFAESGQVYFGIIAQ
modifications: rhTNFm1 with Met
Question: For B1, which “Response Rate (%) CR” value (Lung Cancer; [3]) is on record?
Answer: 0.00%

Question: And the “Response Rate (%) CR + PR” value (Lung Cancer; [3])?
Answer: 5.00%

Question: What about the “Response Rate (%) PR” value (Lung Cancer; [3]) of the same molecule?
Answer: 5.00%

Question: And the “pleural fluid, reexamination about 1 month later” value (Lung Cancer; one lung cancer patient)?
Answer: little pleural fluid remained

Question: What about the “tumor diameter, reexamination about 1 month later, CT scanning” value (Lung Cancer; one lung cancer patient) of the same molecule?
Answer: 3.5 cm

Question: And the “tumor diameter after the treatment, CT scanning” value (Lung Cancer; one lung cancer patient, before 5 cm)?
Answer: 2.5 cm

Question: What about the “quality of life score after the treatment” value (Lung Cancer; one lung cancer patient, before 40) of the same molecule?
Answer: 53

Question: And the “KPS after the treatment” value (Lung Cancer; one lung cancer patient, before 70)?
Answer: 90

Question: And the “pleural fluid after the treatment” value (Lung Cancer; one lung cancer patient, before a large amount of pleural fluid)?
Answer: small amount of pleural fluid remained

Question: What about the “Efficacy CR” value (Lung Cancer; [4]) of the same molecule?
Answer: 0

Question: And the “Efficacy MR” value (Lung Cancer; [4])?
Answer: 2

Question: What about the “Efficacy PD” value (Lung Cancer; [4]) of the same molecule?
Answer: 4

Question: What about the “Efficacy PR” value (Lung Cancer; [4]) of the same molecule?
Answer: 1

Question: And the “Efficacy SD” value (Lung Cancer; [4])?
Answer: 13

Question: What about the “Response Rate (%) CR” value (Liver Cancer) of the same molecule?
Answer: 0.00%

Question: And the “Response Rate (%) CR + PR” value (Liver Cancer)?
Answer: 0.00%

Question: What about the “Response Rate (%) PR” value (Liver Cancer) of the same molecule?
Answer: 0.00%

Question: What about the “Efficacy CR” value (Liver Cancer; patient count) of the same molecule?
Answer: 0

Question: What about the “Efficacy MR” value (Liver Cancer; patient count) of the same molecule?
Answer: 0

Question: And the “Efficacy PD” value (Liver Cancer; patient count)?
Answer: 2

Question: And the “Efficacy PR” value (Liver Cancer; patient count)?
Answer: 0

Question: And the “Efficacy SD” value (Liver Cancer; patient count)?
Answer: 10

Question: And the “Response Rate (%) CR” value (Colon Cancer)?
Answer: 0.00%

Question: What about the “Response Rate (%) CR + PR” value (Colon Cancer) of the same molecule?
Answer: 0.00%

Question: And the “Response Rate (%) PR” value (Colon Cancer)?
Answer: 0.00%

Question: And the “Efficacy CR” value (Colon Cancer; patient count)?
Answer: 0

Question: And the “Efficacy MR” value (Colon Cancer; patient count)?
Answer: 0

Question: What about the “Efficacy PD” value (Colon Cancer; patient count) of the same molecule?
Answer: 4

Question: What about the “Efficacy PR” value (Colon Cancer; patient count) of the same molecule?
Answer: 0

Question: And the “Efficacy SD” value (Colon Cancer; patient count)?
Answer: 3

Question: And the “Response Rate (%) CR” value (Breast Cancer)?
Answer: 0.00%

Question: What about the “Response Rate (%) CR + PR” value (Breast Cancer) of the same molecule?
Answer: 0.00%

Question: What about the “Response Rate (%) PR” value (Breast Cancer) of the same molecule?
Answer: 0.00%

Question: What about the “Efficacy CR” value (Breast Cancer; patient count) of the same molecule?
Answer: 0

Question: And the “Efficacy MR” value (Breast Cancer; patient count)?
Answer: 0

Question: What about the “Efficacy PD” value (Breast Cancer; patient count) of the same molecule?
Answer: 4

Question: And the “Efficacy PR” value (Breast Cancer; patient count)?
Answer: 0

Question: And the “Efficacy SD” value (Breast Cancer; patient count)?
Answer: 6

Question: And the “Response Rate (%) CR” value (non-Hodgkin's lymphoma; [5])?
Answer: 0%

Question: And the “Response Rate (%) CR + PR” value (non-Hodgkin's lymphoma; [5])?
Answer: 75%

Question: What about the “Response Rate (%) PR” value (non-Hodgkin's lymphoma; [5]) of the same molecule?
Answer: 75%

Question: What about the “Response Rate (%) CR” value (non-Hodgkin's lymphoma; [6]) of the same molecule?
Answer: 0%

Question: And the “Response Rate (%) CR + PR” value (non-Hodgkin's lymphoma; [6])?
Answer: 60%

Question: And the “Response Rate (%) PR” value (non-Hodgkin's lymphoma; [6])?
Answer: 60%

Question: What about the “Response Rate (%) CR” value (non-Hodgkin's lymphoma; Chemo-naïve Total, 9 patients) of the same molecule?
Answer: 0%

Question: What about the “Response Rate (%) CR + PR” value (non-Hodgkin's lymphoma; Chemo-naïve Total, 9 patients) of the same molecule?
Answer: 66.67%

Question: And the “Response Rate (%) PR” value (non-Hodgkin's lymphoma; Chemo-naïve Total, 9 patients)?
Answer: 66.67%

Question: What about the “Response Rate (%) CR” value (non-Hodgkin's lymphoma; Chemo-refractory, 56 patients) of the same molecule?
Answer: 3.57%

Question: And the “Response Rate (%) CR + PR” value (non-Hodgkin's lymphoma; Chemo-refractory, 56 patients)?
Answer: 25%

Question: What about the “Response Rate (%) PR” value (non-Hodgkin's lymphoma; Chemo-refractory, 56 patients) of the same molecule?
Answer: 21.43%

Question: What about the “quality of life score after the treatment” value (non-Hodgkin's lymphoma; one NHL patient, before 50) of the same molecule?
Answer: 60

Question: And the “KPS after the treatment” value (non-Hodgkin's lymphoma; one NHL patient, before 90)?
Answer: 90

Question: What about the “Efficacy CR” value (non-Hodgkin's lymphoma; [5]) of the same molecule?
Answer: 0

Question: And the “Efficacy MR” value (non-Hodgkin's lymphoma; [5])?
Answer: 1

Question: What about the “Efficacy PD” value (non-Hodgkin's lymphoma; [5]) of the same molecule?
Answer: 0

Question: What about the “Efficacy PR” value (non-Hodgkin's lymphoma; [5]) of the same molecule?
Answer: 3

Question: And the “Efficacy SD” value (non-Hodgkin's lymphoma; [5])?
Answer: 0

Question: What about the “Efficacy CR” value (non-Hodgkin's lymphoma; [6]) of the same molecule?
Answer: 0

Question: What about the “Efficacy MR” value (non-Hodgkin's lymphoma; [6]) of the same molecule?
Answer: 0

Question: What about the “Efficacy PD” value (non-Hodgkin's lymphoma; [6]) of the same molecule?
Answer: 0

Question: And the “Efficacy PR” value (non-Hodgkin's lymphoma; [6])?
Answer: 3

Question: And the “Efficacy SD” value (non-Hodgkin's lymphoma; [6])?
Answer: 2

Question: And the “Efficacy CR” value (non-Hodgkin's lymphoma; Chemo-naïve Total, 9 patients)?
Answer: 0

Question: And the “Efficacy MR” value (non-Hodgkin's lymphoma; Chemo-naïve Total, 9 patients)?
Answer: 1

Question: And the “Efficacy PD” value (non-Hodgkin's lymphoma; Chemo-naïve Total, 9 patients)?
Answer: 0

Question: What about the “Efficacy PR” value (non-Hodgkin's lymphoma; Chemo-naïve Total, 9 patients) of the same molecule?
Answer: 6

Question: What about the “Efficacy SD” value (non-Hodgkin's lymphoma; Chemo-naïve Total, 9 patients) of the same molecule?
Answer: 2

Question: What about the “Efficacy MR” value (non-Hodgkin's lymphoma; Chemo-refractory, 56 patients) of the same molecule?
Answer: 7

Question: And the “Efficacy PD” value (non-Hodgkin's lymphoma; Chemo-refractory, 56 patients)?
Answer: 10

Question: And the “Efficacy PR” value (non-Hodgkin's lymphoma; Chemo-refractory, 56 patients)?
Answer: 12

Question: What about the “Efficacy SD” value (non-Hodgkin's lymphoma; Chemo-refractory, 56 patients) of the same molecule?
Answer: 25

Question: And the “Response Rate (%) CR” value [1]?
Answer: 9.93%

Question: What about the “Response Rate (%) PR” value [1] of the same molecule?
Answer: 64.54%

Question: And the “Efficacy CR” value ([1]; patient count)?
Answer: 14

Question: And the “Efficacy MR” value ([1]; patient count)?
Answer: 9

Question: And the “Efficacy PD” value ([1]; patient count)?
Answer: 1

Question: And the “Efficacy PR” value ([1]; patient count)?
Answer: 91

Question: And the “Efficacy SD” value ([1]; patient count)?
Answer: 26

Question: What about the “KPS compared to that prior to the treatment” value [2] of the same molecule?
Answer: significantly improved
